This is an account of results in patent US20180362652A1 (Biogen, published 2018).

In assay [1] the target is T1, monomeric huBDCA2 ectodomain (human, UniProt Q8WTT0 45-213).
T1 construct: Prepared by proteolytic cleavage of the purified muIgG2a Fc-huBDCA2 fusion protein (pEAG2423); also called human BDCA2 ectodomain; human BDCA2 ECD
T1 sequence: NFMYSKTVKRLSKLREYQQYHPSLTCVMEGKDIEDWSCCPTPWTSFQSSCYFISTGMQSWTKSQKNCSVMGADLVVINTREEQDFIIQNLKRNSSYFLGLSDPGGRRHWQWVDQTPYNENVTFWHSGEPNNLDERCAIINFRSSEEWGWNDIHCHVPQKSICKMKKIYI
As to the kind of experiment: Octet, mAb from conditioned medium on anti-human Fc tips, monomeric huBDCA2 in solution. Here is the method: Backmutation to the unpaired cysteine, i.e., S95C, was constructed by site-directed mutagenesis producing plasmid pYL749. Variants S95T, S95A, and S95V were constructed by site-directed mutagenesis producing plasmids pYL750, pYL751, and pYL752, respectively. The full-length light chain cDNA sequences in the resultant plasmids were confirmed by DNA sequencing. […] Conditioned medium was harvested at 2 days post-transfection. […] Conditioned medium containing the C95 variant mAbs was assayed by Octet for binding to human BDCA2 ectodomain. Antibodies from conditioned medium from transiently transfected cells were bound to anti-human Fc tips, then monomeric huBDCA2 was flowed over the Octet tips, to examine binding and dissociation.
A general note: BLI is a label-free optical method that tracks binding on a fibre tip over time.

For assay [2], the target named is T2, cynomolgus monkey BDCA2 (full-length, cell surface, E73 SNP form) (cynomolgus monkey, UniProt Q8WTT0 1-213 (human entry)).
T2 construct: also called cyno BDCA2; surface cynomolgus monkey BDCA2
T2 chain: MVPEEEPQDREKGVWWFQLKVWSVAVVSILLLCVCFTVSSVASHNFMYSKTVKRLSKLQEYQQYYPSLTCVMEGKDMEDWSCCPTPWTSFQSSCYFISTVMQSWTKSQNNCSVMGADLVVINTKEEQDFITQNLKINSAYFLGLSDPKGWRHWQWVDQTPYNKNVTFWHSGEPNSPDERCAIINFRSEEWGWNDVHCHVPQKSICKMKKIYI
As to the kind of experiment: flow cytometry, whole blood pDCs of cynomolgus monkey donor 1, anti-human IgG PE secondary. The method, then:
(§1) The MFI of PE was calculated in FlowJo software, and the percent of maximal binding, using the 40 μg/mL point as 100%, was computed. Each line represents one individual cynomolgus monkey, for a total of twelve cynomolgus monkeys, and graphed using GraphPad Prism software (four-parameter nonlinear regression curve fit of log-transformed data). Staining was repeated once a week for three weeks total.
(§2) The maximal values were taken from the values at the plateau in each assay (FIGS. 24 and 25).
(§3) MFI of PE was calculated with FlowJo software, and EC50 curves were generated in GraphPad Prism software.
On the technique in general: Flow cytometry measures light scatter and fluorescence of single cells or particles in a stream.

Assay [3] concerns the target T2, cynomolgus monkey BDCA2 (full-length, …). As to the kind of experiment: flow cytometry, whole blood pDCs of cynomolgus monkey donor 5, anti-human IgG PE secondary. The method, then: as §2, §3
Assay [4] shares this target. Nature of the assay: flow cytometry, whole blood pDCs of cynomolgus monkey donor 8, anti-human IgG PE secondary. The method, then:
as §1, §2, §3

Assay [5] shares this target. Nature of the assay: flow cytometry, whole blood pDCs of cynomolgus monkey donor 10, anti-human IgG PE secondary. The method, then:
as §2, §3

For assay [6] the target is unchanged. Nature of the assay: flow cytometry, Alexa647-labelled BIIB059 on pDCs in cynomolgus monkey whole blood, on ice. Here is the method: Cynomolgus monkey (Toxikon, Inc, Bedford, Mass.) or human peripheral blood (Biogen Idec) were collected in sodium heparin collection tubes and maintained at room temperature. A FACS staining antibody cocktail for identifying pDCs was added to each whole blood aliquot, incorporating CD20, CD14, CD123 and HLA-DR antibodies. […] Blood was incubated on ice, protected from light, for 30 min. […] After a 10-15 min. incubation at room temperature, samples were centrifuged at 1400 rpm for 5 min. The supernatant was decanted, leaving only a pellet of white blood cells (WBC). Each WBC pellet was washed with 5 mL of FACS buffer (1% BSA+0.002% NaAzide+1 mM CaCl₂+1 mM MgCl₂ in PBS), and centrifuged at 1400 rpm for 5 min. The supernatant was decanted, and each WBC pellet was resuspended in 200 μL of FACS buffer and transferred to a 96-well round bottom plate (Fisher Scientific). The plate was centrifuged at 1400 rpm for 5 min. The supernatant was dumped out of the plate, and each WBC pellet was washed with 200 μL of FACS buffer. The plate was centrifuged at 1400 rpm for 5 min, and the supernatant dumped out of the plate. Following washing (as above), WBCs were resuspended in 200 μL of 1% paraformaldehyde (PFA) in PBS, and fixed at 4° C. overnight, protected from light. […] Each WBC pellet was resuspended in 250 μL of FACS buffer and fluorescence intensity measured on a LSRII 4-color FACS machine. […]

Assay [7] has the same target. As to the kind of experiment: indirect method: flow cytometry of pDCs in cynomolgus whole blood, unlabelled BIIB059 titrated, free BDCA2 detected with the competitor BIIB059-A647 at 10 ug/mL [panel Cynomolgus monkey 1]. The method, then: (§4) The MFI of PE (open symbols, graphed on the left y-axis) or A647 (closed symbols, graphed on the right y-axis) was calculated in FlowJo software, and graphed using GraphPad Prism software (four-parameter nonlinear regression curve fit of log-transformed data).
as §2

Assay [8] shares this target. Nature of the assay: indirect method: flow cytometry of pDCs in cynomolgus whole blood, unlabelled BIIB059 titrated, free BDCA2 detected with the competitor BIIB059-A647 at 10 ug/mL [panel Cynomolgus monkey 6]. Here is the method: as §4
Assay [9] shares this target. As to the kind of experiment: indirect method: flow cytometry of pDCs in cynomolgus whole blood, unlabelled BIIB059 titrated, free BDCA2 detected with the competitor BIIB059-A647 at 10 ug/mL [panel Cynomolgus monkey 7]. Here is the method:
as §4

B1: BIIB059 (antibody, human IgG1, kappa)
heavy: not shown
light: DIQLTQSPSSLSASVGDRVTITCKASQSVDYDGDSYMNWYQQKPGKAPKLLIYAASTLESGVPSRFSGSGSGTDFTLTISSLQPEDFATYYCQQANEDPRTFGQGTKVEIKRTVAAPSVFIFPPSDEQLKSGTASVVCLLNNFYPREAKVQWKVDNALQSGNSQESVTEQDSKDSTYSLSSTLTLSKADYEKHKVYACEVTHQGLSSPVTKSFNRGEC
notes: Humanized IgG1 kappa, mature chains; in some assays labelled with Alexa647; also called hu24F4 H4/L1 C95A; H4-L1-C95A (YL751/YL746)
One may read the Kd as the equilibrium constant for the complex coming apart. The term EC50 denotes the concentration needed to bring the measured effect to its halfway point. On to B1, for which binding in assay [1] was characterised by a dissociation constant (Kd) of 0.261 nM. The EC50 in [2] was 0.81 µg/mL; in [3], 0.71 µg/mL; in assay [4] it was 1.2 µg/mL; in assay [5], 1.2 µg/mL; in assay [6], 0.944 µg/mL. The “IC50 (read off the curve)” value in assay [7] was around 1 µg/mL; in [8], around 1 µg/mL; in [9] it was around 2 µg/mL.
